Data: article PMC9280406, “The Necrotroph Botrytis cinerea BcSpd1 Plays a Key Role in Modulating Both Fungal Pathogenic Factors and Plant Disease Development”

Target: BcSpd1 (Botrytis cinerea, UniProt A0A384JL35 1-465)
Experiment: EMSA; excess unlabeled probe blocked the shift; LightShift Chemiluminescent EMSA kit procedure (Thermo Scientific); buffer, salt, pH and temperature not given
Settings: protein: recombinant; tags: His (pET28a); chain copies: 2; blunt

B1: BcQdo promoter fragment 3 (E-BcQdo-Pr3) (dsDNA)
DNA 1: TACCGAACGCCCACAAGCCTTGAATATAGATGTACCGGTACTGCTGCCGA
DNA 2: TCGGCAGCAGTACCGGTACATCTATATTCAAGGCTTGTGGGCGTTCGGTA
Does B1 bind?
Result: binds
